These results are taken from publication PMC13364712, “Evolutionarily conserved short linear motifs drive actin filament binding” (Nature Cell Biology, 2026).

In this assay the target is actin filaments (actin from Gallus gallus skeletal muscle) (Gallus gallus (chicken), UniProt P68139 1-377). Description: co-sedimentation; 4 µM EGFP–SFM peptide with 0–200 µM actin filaments in F buffer, 1 h at room temperature, 100,000g for 30 min; pellet read by anti-EGFP western blot; one-site specific binding fit; apparent. The settings on record: both partners purified.

B1: EGFP-tagged ESPNL SFM peptide (peptide)
chain: IQEWGVSVRTLRGNFESASGPLC
modifications: Limits from translated primers P11/P12 (7 residues either side of SFM 652-660). Construct also has an initiator Met before the peptide and a C-terminal linker-EGFP-TEV-His, left out.
Consider B1, for which the Kd was determined as 6 µM.
